In test [1] the target is Design 28 L2: D3H44 light chain F118W_V133S_S176A_T180E (humanized). Put plainly: light chain competition assay: heavy chain co-expressed with L1 and L2, SPR read-out of light-chain tags; competitor Design 28 L1.
Test [2] concerns the target Design 28 L1: D3H44 light chain F116A_S131K_V133G_S176F_T178A (humanized). The test is described as follows: light chain competition assay: heavy chain co-expressed with L1 and L2, SPR read-out of light-chain tags; competitor Design 28 L2.
For test [3], the target named is Design 30 L2: D3H44 light chain Q160K_T178R (humanized). Put plainly: light chain competition assay: heavy chain co-expressed with L1 and L2, SPR read-out of light-chain tags; competitor Design 30 L1.
Test [4] addresses Design 30 L1: D3H44 light chain Q124E_Q160E_T180E (humanized). Put plainly: light chain competition assay: heavy chain co-expressed with L1 and L2, SPR read-out of light-chain tags; competitor Design 30 L2.
The target in test [5] is tissue factor extracellular domains (human) (UniProt P13726). The test is described as follows: SPR (ProteOn XPR36), TF immobilised, heterodimer as analyte, 1:1 model.
In test [6] the target is Design 27 L2: D3H44 light chain F118W_Q124E_V133S_S176A_T178S_T180E (humanized). The test is described as follows: light chain competition assay: heavy chain co-expressed with L1 and L2, SPR read-out of light-chain tags; competitor Design 27 L1.
In test [7] the target is Design 27 L1: D3H44 light chain F116A_V133G_S176F_T178A (humanized). Put plainly: light chain competition assay: heavy chain co-expressed with L1 and L2, SPR read-out of light-chain tags; competitor Design 27 L2.
Test [8] has as its target Design 15 L2: D3H44 light chain Q160K_T178R (humanized). The test is described as follows: light chain competition assay: heavy chain co-expressed with L1 and L2, SPR read-out of light-chain tags; competitor Design 15 L1.
The target in test [9] is Design 15 L1: D3H44 light chain Q124E_Q160E_T178D (humanized). The test is described as follows: light chain competition assay: heavy chain co-expressed with L1 and L2, SPR read-out of light-chain tags; competitor Design 15 L2.
The target of test [10] is Design 11 L2: D3H44 light chain S176L (humanized). The test is described as follows: light chain competition assay: heavy chain co-expressed with L1 and L2, SPR read-out of light-chain tags; competitor Design 11 L1.
The target of test [11] is Design 11 L1: D3H44 light chain V133S (humanized). The test is described as follows: light chain competition assay: heavy chain co-expressed with L1 and L2, SPR read-out of light-chain tags; competitor Design 11 L2.
Test [12] addresses Design 14 L2: D3H44 light chain Q124R_Q160K_T178R (humanized). Put plainly: light chain competition assay: heavy chain co-expressed with L1 and L2, SPR read-out of light-chain tags; competitor Design 14 L1.
Test [13] concerns the target Design 14 L1: D3H44 light chain Q124E_Q160E_T178D (humanized). Put plainly: light chain competition assay: heavy chain co-expressed with L1 and L2, SPR read-out of light-chain tags; competitor Design 14 L2.
For test [14], the target named is D3H44 light chain, wild type (Design 12 L2) (humanized). Put plainly: light chain competition assay: heavy chain co-expressed with L1 and L2, SPR read-out of light-chain tags; competitor Design 12 L1.
Test [15] deals with Design 12 L1: D3H44 light chain L89R_F98W (humanized). The test is described as follows: light chain competition assay: heavy chain co-expressed with L1 and L2, SPR read-out of light-chain tags; competitor Design 12 L2 (WT).
The target in test [16] is Design 26 L2: D3H44 light chain F116A_S131K_L135A (humanized). Put plainly: light chain competition assay: heavy chain co-expressed with L1 and L2, SPR read-out of light-chain tags; competitor Design 26 L1.
Test [17] deals with Design 26 L1: D3H44 light chain L135W (humanized). The test is described as follows: light chain competition assay: heavy chain co-expressed with L1 and L2, SPR read-out of light-chain tags; competitor Design 26 L2.
For test [18], the target named is Design 31 L2: D3H44 light chain Q38D_F116A_L135A (humanized). Put plainly: light chain competition assay: heavy chain co-expressed with L1 and L2, SPR read-out of light-chain tags; competitor Design 31 L1.
Test [19] addresses Design 31 L1: D3H44 light chain Q38R_L135W (humanized). The test is described as follows: light chain competition assay: heavy chain co-expressed with L1 and L2, SPR read-out of light-chain tags; competitor Design 31 L2.
The target in test [20] is Design 13 L2: D3H44 light chain V133A_Q160K_T178R (humanized). The test is described as follows: light chain competition assay: heavy chain co-expressed with L1 and L2, SPR read-out of light-chain tags; competitor Design 13 L1.
Test [21] has as its target Design 13 L1: D3H44 light chain Q124E_V133W_Q160E_T180E (humanized). The test is described as follows: light chain competition assay: heavy chain co-expressed with L1 and L2, SPR read-out of light-chain tags; competitor Design 13 L2.
Test [22] has as its target Design 32 L2: D3H44 light chain Q38E_F98W (humanized). Put plainly: light chain competition assay: heavy chain co-expressed with L1 and L2, SPR read-out of light-chain tags; competitor Design 32 L1.
The target in test [23] is Design 32 L1: D3H44 light chain Q38R (humanized). The test is described as follows: light chain competition assay: heavy chain co-expressed with L1 and L2, SPR read-out of light-chain tags; competitor Design 32 L2.
Test [24] deals with Design 29 L2: D3H44 light chain Q124R (humanized). Put plainly: light chain competition assay: heavy chain co-expressed with L1 and L2, SPR read-out of light-chain tags; competitor Design 29 L1.
For test [25], the target named is Design 29 L1: D3H44 light chain Q124E_V133D (humanized). Put plainly: light chain competition assay: heavy chain co-expressed with L1 and L2, SPR read-out of light-chain tags; competitor Design 29 L2.

Consider “Design 28 H2: D3H44 heavy chain A139W_S186K_S188A”, for which the H2 Readout in [1] amounted to 94%; in test [2], 1%.
With “Design 30 H1: D3H44 heavy chain D146G_Q179K”, the H1 Readout in test [3] is 1%; in test [4] it was 96%.
In general, Kd refers to the equilibrium constant for the complex coming apart. A low value points to higher affinity. Substance “Design 30 H1-L1 heterodimer (D3H44 heavy D146G_Q179K, light Q124E_Q160E_T180E) (Fab)” came in with a Kd in test [5] of 0.024 nM.
“Design 27 H1: D3H44 heavy chain A139I_K145T_D146G_Q179E_S188G_V190S”: the H1 Readout in test [6] was 1%; in [7] it was 67%.
Consider “Design 13 H2-L2 heterodimer (D3H44 heavy K145T_Q179D_S188F, light V133A_Q160K_T178R) (Fab)”, for which the Kd in [5] came to 0.086 nM.
For “Design 15 H1: D3H44 heavy chain D146G_Q175R”, the H1 Readout in [8] amounted to 1%; in [9] it was 93%.
For “Design 11 H2: D3H44 heavy chain F174V_P175S_S188G”, the H2 Readout in [10] stood at 98%; in test [11], 1%.
Take “Design 27 H2: D3H44 heavy chain S186K_S188H_V190G”: the H2 Readout came to 85% in test [6] and 12% in test [7].
Regarding “Design 11 H2-L2 heterodimer (D3H44 heavy F174V_P175S_S188G, light S176L) (Fab)”, the Kd in [5] came out at 0.04 nM.
Still for that read-out and setting: the figure for “Design 15 H1-L1 heterodimer (D3H44 heavy D146G_Q175R, light Q124E_Q160E_T178D) (Fab)” is 0.082 nM.
Consider “Design 14 H2: D3H44 heavy chain K147E_D148G_Q175D_S183L”, for which the H2 Readout in test [12] came out at 74%; in test [13], 2%.
Regarding “Design 15 H2-L2 heterodimer (D3H44 heavy K147T_Q175D_S183L, light Q160K_T178R) (Fab)”, the dissociation constant Kd in test [5] was 0.071 nM.
Still for that read-out and setting: the same measure for “Design 30 H2-L2 heterodimer (D3H44 heavy L143E_K145T, light Q160K_T178R) (Fab)”: 0.06 nM.
“Design 12 H1: D3H44 heavy chain V37E_F100D”: the H1 Readout in test [14] was 10%; in [15], 99%.
As to “Design 13 H1-L1 heterodimer (D3H44 heavy L143A_D144G_Q179R, light Q124E_V133W_Q160E_T180E) (Fab)”, the Kd in test [5] was found to be 0.087 nM.
Take “Design 26 H2: D3H44 heavy chain A139W_K145Y_Q175E”: the H2 Readout in [16] is 106%; in [17], 1%.
For “Design 31 H2: D3H44 heavy chain Q39R_A139W”, the H2 Readout in test [18] stood at 78%; in [19], 1%.
With “D3H44 heavy chain, wild type (Design 12 H2)”, the H2 Readout is 88% in test [14] and 15% in test [15].
In the case of “Design 13 H2: D3H44 heavy chain K145T_Q179D_S188F”, the figures for the H2 Readout in test [20] and in [21] were 87% and 14%, respectively.
As to Design 32 H1: D3H44 heavy chain Q39E, the results for the H1 Readout in test [22] and in [23] were 1% and 98%, respectively.
Regarding “Design 11 H1-L1 heterodimer (D3H44 heavy S188L_V190Y, light V133S) (Fab)”, the dissociation constant Kd in [5] was 0.043 nM.
On to “Design 15 H2: D3H44 heavy chain K147T_Q175D_S183L”, for which the H2 Readout in [8] amounted to 83%; in [9], 24%.
As for “Design 30 H2: D3H44 heavy chain L143E_K145T”, the H2 Readout in test [3] came to 102%; in test [4], 1%.
As to “Design 29 H1: D3H44 heavy chain L143K_D146G”, the H1 Readout was found to be 1% in test [24] and 93% in [25].
Regarding “Design 11 H1: D3H44 heavy chain S188L_V190Y”, the H1 Readout was 24% in test [10] and 83% in [11].
In the case of “Design 31 H1-L1 heterodimer (D3H44 heavy Q39D_A139G_V190A, light Q38R_L135W) (Fab)”, the dissociation constant Kd in [5] came to 0.025 nM.
As to “Design 29 H2: D3H44 heavy chain L143E_K145T”, the H2 Readout in [24] is 102%; in test [25], 1%.
Regarding Design 32 H2: D3H44 heavy chain Q39R, the H2 Readout in test [22] stood at 93%; in test [23] it was 1%.
As for “Wild-type D3H44 heterodimer (anti-tissue factor Fab, one heavy chain and one light chain)”, the Kd in test [5] was found to be 0.052 nM.
On to “Design 14 H1: D3H44 heavy chain D148G_S181R”, for which the values for the H1 Readout in test [12] and in test [13] were 1% and 84%, respectively.
On to “Design 26 H1: D3H44 heavy chain A139G_V190A”, for which the figures for the H1 Readout in test [16] and in test [17] were 1% and 92%, respectively.
For the substance “Design 28 H1: D3H44 heavy chain A139V_K145L_Q179E_S188G_V190S”, the H1 Readout in test [1] stood at 4%; in test [2] it was 85%.
Consider “Design 13 H1: D3H44 heavy chain L143A_D144G_Q179R”, for which the H1 Readout in test [20] came to 1%; in [21], 104%.
On to “Design 31 H1: D3H44 heavy chain Q39D_A139G_V190A”, for which the H1 Readout came out at 1% in test [18] and 106% in [19].
